Test [1] addresses sEGFR domain III (residues 310-512) (human) (UniProt P00533). Put plainly: size exclusion chromatography (Superdex 200), 4 µM, domain III with Fab 425 and Fab C225 together. (SEC sorts molecules by how far they enter the pores of the column.)
Test [2] concerns the target sEGFR domain III S460P/G461N (human) (UniProt P00533). Put plainly: size exclusion chromatography (Superdex 200), 4 µM; the individual proteins elute at 15.6 mL.
The target in test [3] is sEGFR domain III (residues 310-512) (human) (UniProt P00533). The test is described as above.

Fab 425 had an elution volume of the tripartite complex in test [1] of 13.1 mL. The elution volume of the mixture in test [2] amounted to 15.2 mL. Moreover, the elution volume of the complex in test [3] came to 13.9 mL.

Values taken from US20160152711A1.
